Experimental findings from patent publication EP4755449A2 (CHUGAI SEIYAKU KABUSHIKI KAISHA, dated 2026) are described below.

Where a chain is given by its changes, count along the chain named. In names and notes the source's numbering stands.

Sequences and labels used below:
T1: human Fc gamma RIIb extracellular domain, His-tagged (human, UniProt P31994 43-217)
T1 construct: also called FcgRIIb
T1 sequence: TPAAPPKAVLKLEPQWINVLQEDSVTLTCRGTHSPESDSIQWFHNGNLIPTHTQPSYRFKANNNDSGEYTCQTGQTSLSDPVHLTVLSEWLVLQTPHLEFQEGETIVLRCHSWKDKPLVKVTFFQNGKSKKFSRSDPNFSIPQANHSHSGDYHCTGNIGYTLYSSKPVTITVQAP

T2: cyno Fc gamma RIIb extracellular domain, His-tagged (cynomolgus monkey)
T2 construct: also called cynoFcgRIIb
T2 chain: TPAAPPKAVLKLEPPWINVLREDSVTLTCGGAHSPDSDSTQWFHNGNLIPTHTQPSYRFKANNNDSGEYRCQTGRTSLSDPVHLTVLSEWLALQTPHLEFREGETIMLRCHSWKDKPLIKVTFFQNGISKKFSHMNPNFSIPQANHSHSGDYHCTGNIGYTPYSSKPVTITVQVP

T3: human latent myostatin (human, UniProt O14793 25-266; O14793 267-375)
T3 construct: non-covalent complex of two propeptides and the mature homodimer; also called human myostatin latent form
T3 sequence 1: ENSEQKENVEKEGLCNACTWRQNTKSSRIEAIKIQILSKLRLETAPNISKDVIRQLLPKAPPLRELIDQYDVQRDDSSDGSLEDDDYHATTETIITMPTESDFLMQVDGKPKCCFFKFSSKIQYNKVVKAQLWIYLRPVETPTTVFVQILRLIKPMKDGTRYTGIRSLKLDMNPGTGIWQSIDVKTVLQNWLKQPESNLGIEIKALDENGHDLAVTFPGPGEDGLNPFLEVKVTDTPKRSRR
T3 sequence 2: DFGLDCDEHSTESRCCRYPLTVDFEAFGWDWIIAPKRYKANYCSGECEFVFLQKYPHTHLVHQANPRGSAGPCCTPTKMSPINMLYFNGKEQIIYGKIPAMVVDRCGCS

B1: M103205H795-SG1 K334Y/M103202L889-SK1 (antibody, human IgG1, kappa)
heavy: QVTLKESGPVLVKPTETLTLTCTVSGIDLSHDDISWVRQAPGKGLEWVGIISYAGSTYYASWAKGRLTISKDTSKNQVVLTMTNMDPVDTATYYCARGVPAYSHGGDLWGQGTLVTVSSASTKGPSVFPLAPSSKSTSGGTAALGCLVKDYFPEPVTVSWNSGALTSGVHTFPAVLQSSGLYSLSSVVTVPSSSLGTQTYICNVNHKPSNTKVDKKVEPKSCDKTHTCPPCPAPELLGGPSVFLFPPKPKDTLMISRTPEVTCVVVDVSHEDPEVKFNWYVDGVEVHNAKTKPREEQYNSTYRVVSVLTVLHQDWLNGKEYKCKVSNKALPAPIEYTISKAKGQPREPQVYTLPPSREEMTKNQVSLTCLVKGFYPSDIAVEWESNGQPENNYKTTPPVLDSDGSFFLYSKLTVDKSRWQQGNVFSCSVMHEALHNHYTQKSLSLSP
light: DIVMTQSPATLSLSPGERATLSCTSSQSVYHANWLSWFQQKPGQPPKLLIYWASTLAYGVPSRFSGSGSGTDFTLTISSLQPEDAATYYCAGGYGGGRYAFGQGTKVEIKRTVAAPSVFIFPPSDEQLKSGTASVVCLLNNFYPREAKVQWKVDNALQSGNSQESVTEQDSKDSTYSLSSTLTLSKADYEKHKVYACEVTHQGLSSPVTKSFNRGEC
notes: copies: 2 + 2
B2: MS103205H795-MY351/M103202L889-SK1 (antibody)
heavy: QVTLKESGPVLVKPTETLTLTCTVSGIDLSHDDISWVRQAPGKGLEWVGIISYAGSTYYASWAKGRLTISKDTSKNQVVLTMTNMDPVDTATYYCARGVPAYSHGGDLWGQGTLVTVSSASTKGPSVFPLAPSSKSTSGGTAALGCLVKDYFPEPVTVSWNSGALTSGVHTFPAVLQSSGLYSLSSVVTVPSSSLGTQTYICNVNHKPSNTKVDKKVEPKSCDKTHTCPPCPAPELLNGPSVFLFPPKPKDTLMISRTPEVTCVVVDVSDEDPEVKFNWYVDGVEVHNAKTKPREEQYNSTYRVVSVLTVLHRDWLNGKEYKCKVSNKALPKPIEKTISKAKGQPREPQVYTLPPSREEMTKNQVSLTCLVKGFYPSDIAVEWESNGQPENNYKTTPPVLDSDGSFFLYSKLTVKKSRWQQGNVFSCSVMHEALHNHYTQKSLSLSP
light: B1 light
notes: also called MS1032LO06-MY351; copies: 2 + 2
B3: M103205H795-SG1 P396M/M103202L889-SK1 (antibody, human IgG1, kappa)
heavy: not shown
light: B1 light
notes: copies: 2 + 2
B4: M103205H795-SG1 S239V/M103202L889-SK1 (antibody, human IgG1, kappa)
heavy: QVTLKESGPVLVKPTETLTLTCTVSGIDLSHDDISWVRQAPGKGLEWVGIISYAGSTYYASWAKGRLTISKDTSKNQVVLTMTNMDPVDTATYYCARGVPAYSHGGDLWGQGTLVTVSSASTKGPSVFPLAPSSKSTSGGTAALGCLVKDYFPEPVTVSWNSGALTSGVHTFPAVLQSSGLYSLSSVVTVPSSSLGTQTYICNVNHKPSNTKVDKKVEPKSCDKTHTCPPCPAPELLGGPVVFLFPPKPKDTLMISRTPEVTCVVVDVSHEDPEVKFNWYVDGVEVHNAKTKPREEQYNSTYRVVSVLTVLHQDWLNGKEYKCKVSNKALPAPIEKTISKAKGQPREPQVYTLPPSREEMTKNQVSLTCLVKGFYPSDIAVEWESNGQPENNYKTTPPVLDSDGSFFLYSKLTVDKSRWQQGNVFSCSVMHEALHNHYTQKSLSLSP
light: B1 light
notes: copies: 2 + 2
B5: M103205H795-SG1 H268E/M103202L889-SK1 (antibody, human IgG1, kappa)
heavy: not shown
light: B1 light
notes: copies: 2 + 2
B6: M103205H795-SG1 L234W/M103202L889-SK1 (antibody, human IgG1, kappa)
heavy: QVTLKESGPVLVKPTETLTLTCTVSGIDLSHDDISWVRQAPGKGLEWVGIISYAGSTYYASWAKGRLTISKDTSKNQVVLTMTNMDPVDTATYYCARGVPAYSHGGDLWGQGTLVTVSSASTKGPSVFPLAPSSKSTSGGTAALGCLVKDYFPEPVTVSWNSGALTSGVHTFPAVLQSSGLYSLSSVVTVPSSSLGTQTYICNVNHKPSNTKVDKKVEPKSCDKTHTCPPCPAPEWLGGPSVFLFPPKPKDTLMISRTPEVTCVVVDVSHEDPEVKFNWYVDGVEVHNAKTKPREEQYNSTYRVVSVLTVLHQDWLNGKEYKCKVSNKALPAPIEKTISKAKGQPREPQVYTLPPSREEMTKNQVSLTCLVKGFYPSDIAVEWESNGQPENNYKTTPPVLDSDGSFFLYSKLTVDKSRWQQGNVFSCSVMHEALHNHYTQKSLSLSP
light: B1 light
notes: copies: 2 + 2
B7: M103205H795-SG1 I332D/M103202L889-SK1 (antibody, human IgG1, kappa)
heavy: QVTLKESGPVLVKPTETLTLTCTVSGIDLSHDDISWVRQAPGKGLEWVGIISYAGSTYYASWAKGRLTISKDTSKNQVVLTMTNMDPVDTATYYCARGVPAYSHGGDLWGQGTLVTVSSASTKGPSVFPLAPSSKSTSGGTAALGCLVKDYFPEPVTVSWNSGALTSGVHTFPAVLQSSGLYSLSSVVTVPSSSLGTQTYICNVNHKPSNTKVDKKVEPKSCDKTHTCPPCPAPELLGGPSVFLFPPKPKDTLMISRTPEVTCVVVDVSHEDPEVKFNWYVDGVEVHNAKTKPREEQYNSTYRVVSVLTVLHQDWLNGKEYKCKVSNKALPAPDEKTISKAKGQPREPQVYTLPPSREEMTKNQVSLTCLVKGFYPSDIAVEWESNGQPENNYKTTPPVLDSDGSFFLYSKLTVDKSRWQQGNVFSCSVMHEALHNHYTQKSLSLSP
light: B1 light
notes: copies: 2 + 2
B8: M103205H795-SG1 E233D/M103202L889-SK1 (antibody, human IgG1, kappa)
heavy: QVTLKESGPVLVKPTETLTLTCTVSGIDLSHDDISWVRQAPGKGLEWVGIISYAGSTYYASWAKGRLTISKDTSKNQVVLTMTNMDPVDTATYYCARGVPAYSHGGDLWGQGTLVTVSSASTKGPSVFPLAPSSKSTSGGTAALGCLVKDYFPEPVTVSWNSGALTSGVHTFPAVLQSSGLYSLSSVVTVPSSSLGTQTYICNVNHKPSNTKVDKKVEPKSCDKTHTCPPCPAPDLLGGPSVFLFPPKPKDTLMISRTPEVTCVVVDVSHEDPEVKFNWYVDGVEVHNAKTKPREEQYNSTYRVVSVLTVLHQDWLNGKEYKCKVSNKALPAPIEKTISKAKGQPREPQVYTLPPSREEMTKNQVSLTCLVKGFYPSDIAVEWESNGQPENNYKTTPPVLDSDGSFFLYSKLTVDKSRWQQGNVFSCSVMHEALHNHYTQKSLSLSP
light: B1 light
notes: copies: 2 + 2
B9: M103205H795-SG1 G236A/M103202L889-SK1 (antibody, human IgG1, kappa)
heavy: not shown
light: B1 light
notes: copies: 2 + 2
B10: M103205H795-SG1 P331E/M103202L889-SK1 (antibody, human IgG1, kappa)
heavy: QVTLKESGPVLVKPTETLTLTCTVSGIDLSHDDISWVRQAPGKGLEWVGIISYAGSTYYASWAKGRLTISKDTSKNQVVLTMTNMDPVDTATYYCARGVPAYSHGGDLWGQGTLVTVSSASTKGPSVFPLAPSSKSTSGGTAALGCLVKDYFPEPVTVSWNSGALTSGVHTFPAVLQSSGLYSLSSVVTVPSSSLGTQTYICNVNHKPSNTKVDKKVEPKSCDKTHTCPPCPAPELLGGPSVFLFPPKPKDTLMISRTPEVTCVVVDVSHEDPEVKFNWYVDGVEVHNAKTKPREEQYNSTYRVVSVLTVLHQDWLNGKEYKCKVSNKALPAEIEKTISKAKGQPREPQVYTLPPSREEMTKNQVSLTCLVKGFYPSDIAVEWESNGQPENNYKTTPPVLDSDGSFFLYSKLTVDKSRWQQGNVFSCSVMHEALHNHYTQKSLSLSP
light: B1 light
notes: copies: 2 + 2
B11: M103205H795-SG1 K334I/M103202L889-SK1 (antibody, human IgG1, kappa)
heavy: not shown
light: B1 light
notes: copies: 2 + 2
B12: M103205H795-SG1 K334M/M103202L889-SK1 (antibody, human IgG1, kappa)
heavy: not shown
light: B1 light
notes: copies: 2 + 2
B13: M103205H795-SG1 S298L/M103202L889-SK1 (antibody, human IgG1, kappa)
heavy: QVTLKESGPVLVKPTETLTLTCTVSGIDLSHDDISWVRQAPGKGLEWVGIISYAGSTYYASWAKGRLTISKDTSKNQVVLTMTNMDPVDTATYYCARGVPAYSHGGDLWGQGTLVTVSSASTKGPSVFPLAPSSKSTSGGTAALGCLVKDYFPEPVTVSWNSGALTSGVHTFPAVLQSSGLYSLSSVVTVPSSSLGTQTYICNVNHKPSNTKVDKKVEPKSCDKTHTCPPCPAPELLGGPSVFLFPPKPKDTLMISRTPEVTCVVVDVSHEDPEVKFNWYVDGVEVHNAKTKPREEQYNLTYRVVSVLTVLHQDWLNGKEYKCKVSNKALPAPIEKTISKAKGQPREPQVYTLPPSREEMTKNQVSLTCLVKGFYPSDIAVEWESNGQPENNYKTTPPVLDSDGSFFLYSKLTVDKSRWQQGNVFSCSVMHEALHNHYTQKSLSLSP
light: B1 light
notes: copies: 2 + 2
B14: M103205H795-SG1 L235W/M103202L889-SK1 (antibody, human IgG1, kappa)
heavy: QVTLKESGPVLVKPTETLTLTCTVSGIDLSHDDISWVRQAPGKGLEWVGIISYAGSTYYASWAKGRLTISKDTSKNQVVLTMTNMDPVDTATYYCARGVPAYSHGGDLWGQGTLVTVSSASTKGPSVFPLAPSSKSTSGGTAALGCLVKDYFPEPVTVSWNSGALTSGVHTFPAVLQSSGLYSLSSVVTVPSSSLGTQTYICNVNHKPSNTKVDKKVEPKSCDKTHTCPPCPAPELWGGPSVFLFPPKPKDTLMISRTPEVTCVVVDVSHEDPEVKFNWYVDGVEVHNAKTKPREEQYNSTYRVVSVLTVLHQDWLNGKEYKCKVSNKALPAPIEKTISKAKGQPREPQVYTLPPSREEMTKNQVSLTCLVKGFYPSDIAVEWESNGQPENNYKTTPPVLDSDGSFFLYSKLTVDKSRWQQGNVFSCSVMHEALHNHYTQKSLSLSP
light: B1 light
notes: copies: 2 + 2
B15: M103205H795-SG1 K334V/M103202L889-SK1 (antibody, human IgG1, kappa)
heavy: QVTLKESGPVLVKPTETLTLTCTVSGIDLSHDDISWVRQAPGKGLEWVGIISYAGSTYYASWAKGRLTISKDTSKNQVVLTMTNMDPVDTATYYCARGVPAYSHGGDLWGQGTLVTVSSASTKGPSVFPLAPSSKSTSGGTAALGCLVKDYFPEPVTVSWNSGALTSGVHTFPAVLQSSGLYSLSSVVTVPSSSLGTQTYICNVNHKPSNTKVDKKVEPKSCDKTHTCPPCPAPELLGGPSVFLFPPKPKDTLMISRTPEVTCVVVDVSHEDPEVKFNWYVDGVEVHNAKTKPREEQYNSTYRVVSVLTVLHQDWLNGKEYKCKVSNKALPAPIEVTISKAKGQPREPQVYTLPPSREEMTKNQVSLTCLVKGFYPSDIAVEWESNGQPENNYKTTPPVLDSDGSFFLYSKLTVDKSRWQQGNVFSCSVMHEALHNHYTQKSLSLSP
light: B1 light
notes: copies: 2 + 2
B16: M103205H795-SG1 K326T/M103202L889-SK1 (antibody, human IgG1, kappa)
heavy: not shown
light: B1 light
notes: copies: 2 + 2
B17: M103205H795-SG1 S267A/M103202L889-SK1 (antibody, human IgG1, kappa)
heavy: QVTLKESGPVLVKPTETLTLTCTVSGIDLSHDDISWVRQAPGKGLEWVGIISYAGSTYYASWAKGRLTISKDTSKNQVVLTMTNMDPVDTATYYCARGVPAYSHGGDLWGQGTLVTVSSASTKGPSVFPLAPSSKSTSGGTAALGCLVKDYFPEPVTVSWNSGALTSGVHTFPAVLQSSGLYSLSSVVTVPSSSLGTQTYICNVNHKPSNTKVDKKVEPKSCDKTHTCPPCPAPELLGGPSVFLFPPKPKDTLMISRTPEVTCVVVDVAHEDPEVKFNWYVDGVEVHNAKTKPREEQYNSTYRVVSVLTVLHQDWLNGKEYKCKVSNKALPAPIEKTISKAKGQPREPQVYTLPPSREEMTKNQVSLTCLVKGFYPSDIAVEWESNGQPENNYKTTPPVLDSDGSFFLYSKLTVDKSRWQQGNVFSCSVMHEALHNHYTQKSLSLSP
light: B1 light
notes: copies: 2 + 2
B18: M103205H795-SG1 P271G/M103202L889-SK1 (antibody, human IgG1, kappa)
heavy: not shown
light: B1 light
notes: copies: 2 + 2
B19: MS103205H795-PK2/M103202L889-SK1 (antibody)
heavy: B2 heavy with D270E, R313Q, P398M, S402R
light: B1 light
notes: also called MS1032LO06-PK2; copies: 2 + 2
B20: M103205H795-SG1 Q295L/M103202L889-SK1 (antibody, human IgG1, kappa)
heavy: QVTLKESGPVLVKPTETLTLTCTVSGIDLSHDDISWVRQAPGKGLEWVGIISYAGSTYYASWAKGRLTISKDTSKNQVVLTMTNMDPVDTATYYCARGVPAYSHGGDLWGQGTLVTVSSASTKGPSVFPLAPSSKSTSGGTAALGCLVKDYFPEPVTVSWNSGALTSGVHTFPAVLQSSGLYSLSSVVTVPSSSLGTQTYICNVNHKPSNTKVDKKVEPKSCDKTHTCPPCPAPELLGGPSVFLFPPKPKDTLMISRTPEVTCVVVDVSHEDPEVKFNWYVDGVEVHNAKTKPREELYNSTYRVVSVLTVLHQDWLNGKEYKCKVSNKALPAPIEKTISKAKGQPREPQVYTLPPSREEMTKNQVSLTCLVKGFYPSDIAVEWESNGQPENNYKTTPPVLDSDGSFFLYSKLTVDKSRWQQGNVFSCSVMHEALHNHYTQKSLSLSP
light: B1 light
notes: copies: 2 + 2
B21: MS_M103205H707-SG1/M103202L802-SK1 (antibody, human IgG1, kappa, V domains shown)
VH: QVTLKESGPVLVKPTETLTLTCTVSGIDLSHYDISWVRQAPGKGLEWVGIISYAGSTYYASWAKGRLTISKDTSKNQVVLTMTNMDPVDTATYYCARGVPAYSHGGDLWGQGTLVTVSS
VL: DIVMTQSPATLSLSPGERATLSCTSSQSVYHDNWLSWFQQKPGQPPKLLIYWASTLAYGVPSRFSGSGSGTDFTLTISSLQPEDAATYYCAGGYGGGLYAFGQGTKVEIKR
notes: also called MS1032LO04-SG1
B22: MS_M103205H781-SG1/M103202L813-SK1 (antibody, human IgG1, kappa, V domains shown)
VH: B21 VH with Y32T, A60M
VL: B21 VL with T24Q, S25T, Y58S, L98R
notes: also called MS1032LO03-SG1
B23: MS_M103205H781-SG1/M103202L719-SK1 (antibody, human IgG1, kappa, V domains shown)
VH: B21 VH with Y32T, A60M
VL: B21 VL with T24Q, D32N, Y58F
notes: also called MS1032LO02-SG1

The target of the first experiment is T1, human Fc gamma RIIb extracellular …. Nature of the experiment: SPR 25C.
Regarding B1, the binding result is given as “binds”.
For the molecule B2, the “KD fold vs SG1” value is 5 fold.
Consider B3, for which the binding result is on record as “binds”.
Take B4: the binding result is given as “binds”.
Same read-out and setting: the same measure for B5: “binds”; for B6: “binds”; for B7: “binds”.
With B8, the binding result is given as “binds”.
For B9, the binding result is on record as “binds”.
B10: the binding result is on record as “binds”.
As to B11, the binding result was “binds”.
As for B12, the binding result is “binds”.
With B13, the binding result was “binds”.
B14: the binding result was “binds”.
Same read-out and setting: the entry for B15 is “binds”.
Consider B16, for which the binding result was “binds”.
Regarding B17, the binding result is listed as “binds”.
For B18, the binding result is “binds”.
In the case of B19, the “KD fold vs SG1” value was 8 fold.
As for B20, the binding result is “binds”.

A further experiment has as its target T2, cyno Fc gamma RIIb extracellular …. Nature of the experiment: SPR 25C.
For B1, the binding result is given as “binds”.
Turning to B3, the binding result is given as “binds”.
Still for that read-out and setting: the same measure for B4: “binds”.
For the molecule B5, the binding result was “binds”.
Same read-out and setting: the same measure for B6: “binds”.
Take B7: the binding result is “binds”.
With B8, the binding result is listed as “binds”.
Take B9: the binding result is “binds”.
As for B10, the binding result is reported as “binds”.
As for B11, the binding result is given as “binds”.
B12: the binding result is reported as “binds”.
As for B13, the binding result was “binds”.
Turning to B14, the binding result is listed as “binds”.
For the molecule B15, the binding result is on record as “binds”.
The same measure, in the same setting: the entry for B16 is “binds”; for B17 it is “binds”.
The same measure, in the same setting: the same measure for B18: “binds”.
Take B20: the binding result is given as “binds”.

Another experiment deals with T3, human latent myostatin. As to the kind of experiment: SPR affinity condition pH7.4 37C.
One may read the koff as the first-order rate constant of dissociation. By kon is commonly meant the second-order rate constant of association. Higher therefore signals faster complex formation. For B21, the Kd was 0.812 nM, the koff worked out at 0.00125 s⁻¹ and the kon was 1.54e+06 M⁻¹ s⁻¹.
The matching figures for B22: 1.08 nM, 0.00117 s⁻¹ and 1.08e+06 M⁻¹ s⁻¹.
B23 returned a Kd of 1.64 nM, a koff of 0.00179 s⁻¹ and a kon of 1.08e+06 M⁻¹ s⁻¹.

The target in a further experiment is T3, human latent myostatin. Nature of the experiment: SPR avidity condition pH7.4 37C; pH 7.4.
In turn, B21 returned a Kd of 0.163 nM, a koff of 0.000217 s⁻¹ and a kon of 1.33e+06 M⁻¹ s⁻¹.
Take B22: the Kd turned out to be 0.196 nM, the dissociation rate constant (koff) came out at 0.000192 s⁻¹ and the kon came out at 981000 M⁻¹ s⁻¹.
In turn, B23 came in with a Kd of 0.298 nM, a koff of 0.000249 s⁻¹ and a kon of 836000 M⁻¹ s⁻¹.

The next experiment deals with T3, human latent myostatin. As to the kind of experiment: SPR avidity condition pH5.8 37C; pH 5.8.
In turn, B21 displayed a Kd of 9.13 nM, a koff of 0.00713 s⁻¹ and a kon of 781000 M⁻¹ s⁻¹.
The matching figures for B22: 9.66 nM, 0.00524 s⁻¹ and 543000 M⁻¹ s⁻¹.
B23: the Kd came to 24.3 nM, the koff is 0.0414 s⁻¹ and the kon is 1.7e+06 M⁻¹ s⁻¹.
